According to US6579848B1, “Depigmenting activity of agouti signal protein and peptides thereof” (The United States of America as represented by the …, priority 1995, dated 2003):

Key:
Type in all cases: cell-based, murine
MSH receptor = experiment: Northern blotting of MSH receptor RNA in melan-a cells; conditions: for RNA level of MSH receptor: 10 nM, 5 days
Description: Total RNA was extracted from cells using an RNeasy total RNA isolation kit (QIAGEN, Catsworth, Calif.), following the manufacturer's instructions. 20 μg of total RNA was denatured, electrophoresed through 1.0% agarose gels, and transferred overnight at 23° C. to SureBlot nylon hybridization membranes (Oncor, Gaithersburg, Md.) in the standard manner. Filters were prehybridized for 3 hours at 45° C. with Hybrisol I solution (Oncor, 50% formamide, 10% dextran sulfate, 1% SDS and blocking reagent), and then hybridized with a ^32P-labeled probe. […] A commercially available cDNA probe specific for glyceraldehyde-3-phospho-dehydrogenase (GAPDH) was used to standardize RNA loading on the blots. The cDNA probes were labeled using random primer extension and heated to 100° C. for 10 minutes, then cooled on ice for 10 minutes prior to adding to the hybridization solution. Hybridization was performed with the radiolabeled probes in Hybrisol I (3×10^7 cpm/10 ml) overnight at 45° C. with gentle shaking. Following the incubation, the blots were washed for 10 minutes at 23° C. with 2×SSC/10% SDS, then for 10 minutes with 0.2×SSC/0.5% SDS, and finally for 10 minutes with 0.1×SSC/0.1% SDS. The blots were then exposed in phosphoroimager cassettes at 23° C. for 1 hour and the densities of the bands were scanned using ImageQuant software. The % control for each probe was corrected for initial loading using comparison with the GAPDH standard. […] This was repeated as necessary until no remaining probe could be detected.

TRP1 = experiment: Northern blotting of TRP1 RNA in melan-a cells; conditions: for RNA level of TRP1: 10 nM, 5 days
Description: (§1) These techniques were performed as described previously (Aroca et al., 1993). Briefly, 2.0 μg of mRNA, isolated using a total RNA isolation kit and mRNA purification kit (Promega, Madison, Wis.), were electrophoresed and then blotted to Sure-Blot nylon membranes (Oncor, Gaithersburg, Md.), hybridized with ^32P-labeled probes, dehybridized and rehybridized with other probes again as necessary. TYRS-J, the probe specific for tyrosinase, was kindly provided by Drs. H. Yamamoto and T. Takeuchi, Sendai, Japan and is described in Yamamoto et al Japan J. Genetics Vol 62:271-274, 1987. pMT4, specific for TRP1, was provided by Dr. S. Shibahara, Sendai, Japan and is described in Shibahara, S. et al Nucleic Acid Res. Vol 14:2413-2427, 1986. TRP2a, specific for TRP2 was provided by Dr. I. Jackson, Edinburgh, Scotland and is described in Jackson, I et al. EMBO Vol 11:527-535, 1992. gp100, specific for silver, was provided by Dr. Y. Kawakami, Bethesda, Md. and is described in Kawakami et al PNAS, Vol. 91, 6458-6462, 1994.
(§2) Recombinant agouti protein was purified from baculovirus system by Dr. Michael Ollmann in Dr. Gregory Barsh's laboratory by methods known in the art. 2×10^6 cells were seeded per 15 cm diameter dish. The medium was changed everyday, and fresh agouti protein and/or αMSH added everyday usually at 10 nM. To examine transcriptional regulation, total RNA was isolated and Northern blotting performed by methods described in Example 1. The A26 probe to the MSH-R was provided by Dr. R. Cone and is described in Mountjoy et al. Science 257:1248-1251, 1992. At the translational level, metabolic labeling was used in conjunction with immunoprecipitation as described in Example 1. Western blotting and enzyme assay was used to examine function.
(§3) The effects of agouti protein on expression of TRP1, TRP2, and the MSH receptor were examined.
(§4) Total RNA was extracted from cells using an RNeasy total RNA isolation kit (QIAGEN, Catsworth, Calif.), following the manufacturer's instructions. […]

TRP2 = experiment: Northern blotting of TRP2 RNA in melan-a cells
Description: as §1, §2, §3, §4

[1] = 24 hours, different concentrations

Row | Molecule | RNA level of MSH receptor (MSH receptor) | RNA level of TRP1 (TRP1) | increase in TRP2 RNA level (TRP2; 10 nM, 5 days) [%] | level of RNA for the MSH receptor (MSH receptor; [1]) | level of TRP1 RNA (TRP1; [1]) | RNA level of TRP2 (TRP2; 10 nM, 5 days) | level of TRP2 RNA (TRP2; [1])
1 | α-melanocyte stimulating hormone [MSH, reference compound] | no significant increase | no significant increase | 50 |  |  |  | 
2 | agouti protein: Recombinant murine agouti signal protein purified from a baculovirus expression system (protein) MDVTRLLLATLVSFLCFFTVHSHLALEETLGDDRSLRSDSSMNSLDFSSVSIVALNKKSKKISRKEAEKRKRSSKKKASMKKVARPPPPSPCVATRDSCKPPAPACCDPCASCQCRFFGSACTCRVLNPNC | no significant effect | nearly a fivefold decrease |  | no significant effect | reduced, but not to the same extent as tyrosinase RNA | nearly a fivefold decrease | reduced, but not to the same extent as tyrosinase RNA
